Measurements reported in article PMC3142331 (2011).

Target: T1, RNA polymerase II CTD tetraheptad CTD (UniProt P24928, CTD Ser5 phosphorylation)
T1 chain: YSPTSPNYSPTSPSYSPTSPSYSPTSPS
Experiment: guanylyltransferase stimulation assay

- Kd: 1500 nM
B1: Mce (protein)
chain: not shown
